In US20070196376A1 (AstraZeneca / MedImmune, published 2007):
Substitutions are numbered along the chain they refer to. Each block holds one binder with its values, some of them ahead of it.

Key:
[1] = molecular target: T1, human insulin-like growth factor-I (IGF-I) (human, UniProt P05019 49-118); test: cell-based or functional assay
[2] = molecular target: T2, human insulin-like growth factor-II (IGF-II) (human, UniProt P01344 25-91); test: cell-based or functional assay
[3] = molecular target: T1, human insulin-like growth factor-I …; test: cell-based or functional assay; remark: listed apart in the source
[4] = molecular target: T2, human insulin-like growth factor-II …; test: cell-based or functional assay; remark: listed apart in the source
[5] = molecular target: T1, human insulin-like growth factor-I …; test: cell-based or functional assay; remark: listed apart in the source
[6] = molecular target: T2, human insulin-like growth factor-II …; test: cell-based or functional assay; remark: listed apart in the source
[7] = molecular target: T2, human insulin-like growth factor-II …; test: cell-based or functional assay; remark: listed apart in the source
[8] = molecular target: mouse IGF-I (mouse, UniProt P05017 49-118); test: cell-based or functional assay
[9] = molecular target: mouse IGF-II (mouse, UniProt P09535 25-91); test: cell-based or functional assay
[10] = molecular target: T1, human insulin-like growth factor-I …; test: Biacore low-resolution analysis, IGF-I
[11] = molecular target: T2, human insulin-like growth factor-II …; test: Biacore low-resolution analysis, IGF-II
[12] = molecular target: T1, human insulin-like growth factor-I …; test: Biacore low-resolution screen, mAb captured, IGF-I injected
[13] = molecular target: T2, human insulin-like growth factor-II …; test: Biacore low-resolution screen, mAb captured, IGF-II injected
[14] = molecular target: T1, human insulin-like growth factor-I …; test: Biacore high-resolution, mAb captured, IGF-I injected over a range of concentrations
[15] = molecular target: T2, human insulin-like growth factor-II …; test: Biacore high-resolution, mAb captured, IGF-II injected over a range of concentrations
[16] = molecular target: T3, Recombinant human IGF-I (insulin-like growth factor-I) (human, UniProt P05019 49-118); test: limited antigen ELISA, supernatant 1:25
T3 construct: Bought; also called IGF1; IGF-1

[17] = molecular target: T4, Recombinant human IGF-II (insulin-like growth factor-II) (human, UniProt P01344 25-91); test: limited antigen ELISA, supernatant 1:25
T4 construct: Bought; also called IGF2; IGF-2

[18] = molecular target: T5, human insulin (human, UniProt P01308 25-54; P01308 90-110, limits assumed); test: Biacore, mAb on CM5 chip, insulin injected
T5 construct: The mature hormone has an A and a B chain cut from the precursor; also called recombinant insulin; hu-Insulin

B1: mAb 7.234.2 (antibody, V domains shown)
VH: QLQLQESGPGLVKPSETLSLTCTVSGGSINSSSNYWGWIRQPPGKGLAWIGGIYYSGSTYYNPSLRSRVTMSVDTSKNQFSLKLSSVTAADTAVYYCARQRGHSSGWWYFDLWGRGTLVTVSS
VL: DIQMTQSPSSVSASVGDRVTITCRASRGISSWLAWYQQRPGKAPKLLIYTASSLQSGVPSRFSGSGSGTDFTLTISSLQPEDFATYYCQQANSFPFTFGPGTKVDIKR
notes: Kappa light chain (L5/JK3); also called 7.234.1; 7_234_1
% MAX Activation, mean (n = 2), IGF-I pTYR of hIGF-IR in NIH3T3 cells [1]: 21.1%
EC50 (nM), mean (n = 2), IGF-I pTYR of hIGF-IR in NIH3T3 cells [1]: 24.3 nM
% MAX Activation, mean (n = 2), IGF-II pTYR of hIGF-IR in NIH3T3 cells [2]: 21.1%
EC50 (nM), mean (n = 2), IGF-II pTYR of hIGF-IR in NIH3T3 cells [2]: 7.7 nM
% Inhibition, mean (n = 3), IGF-I Proliferation Assay, NIH3T3/hIGF-IR cells [3]: 67.3%
EC50 (nM), mean (n = 3), IGF-I Proliferation Assay, NIH3T3/hIGF-IR cells [3]: 40.6 nM
% Inhibition, mean (n = 2), IGF-II Proliferation Assay, NIH3T3/hIGF-IR cells [4]: 62.1%
EC50 (nM), mean (n = 2), IGF-II Proliferation Assay, NIH3T3/hIGF-IR cells [4]: 24.3 nM
EC50 (nM), n = 1, IGF-I pTYR, BxPC3 cells [5]: 5.1 nM
EC50 (nM), n = 2, IGF-I pTYR, BxPC3 cells [5]: 2.9 nM
Max % Inhibition (333.3 nM), n = 1, IGF-I pTYR, BxPC3 cells [5]: 97.3%
Max % Inhibition (333.3 nM), n = 2, IGF-I pTYR, BxPC3 cells [5]: 91.5%
EC50 (nM), n = 1, IGF-II pTYR, BxPC3 cells [6]: 1.9 nM
EC50 (nM), n = 2, IGF-II pTYR, BxPC3 cells [6]: 2.3 nM
Max % Inhibition (133.3 nM), n = 2, IGF-II pTYR, BxPC3 cells [6]: 77.3%
Max % Inhibition (333.3 nM), n = 1, IGF-II pTYR, BxPC3 cells [6]: 98.5%
EC50 (nM), n = 2, IGF-II Proliferation, BxPC3 cells [7]: 2.6 nM
Max % Inhibition (133.3 nM), n = 2, IGF-II Proliferation, BxPC3 cells [7]: 201%
Max % Inhibition (333.3 nM), n = 1, IGF-II Proliferation, BxPC3 cells [7]: 112%
Mouse IGF-I EC50 (nM), n = 1, phosphorylation of hIGF-IR in NIH3T3 cells [8]: 46 nM
Mouse IGF-II EC50 (nM), n = 1, phosphorylation of hIGF-IR in NIH3T3 cells [9]: 36.1 nM
Kd [10]: 0.328 nM
Kd [11]: 0.0453 nM
Kd [12]: 0.328 nM
koff [12]: 0.0022 s⁻¹
kon [12]: 6.7e+06 M⁻¹ s⁻¹
Kd [13]: 0.0453 nM
koff [13]: 0.00029 s⁻¹
kon [13]: 6.4e+06 M⁻¹ s⁻¹
Kd [14]: 3.76 nM
Kd [15]: 0.295 nM

B2: mAb 7.158.2 (antibody, V domains shown)
VH: B1 VH with N30R, N34Y, A48E, R66K
VL: B1 VL with R18S, R27Q, W32Y, R39K, T50A, S65N, S93N
notes: also called 7.158.1; 7_158_1
LA OD, IGF1 2 ng/ml [16]: 1.71 OD 450 nm
LA OD, IGF1 4 ng/ml [16]: 3 OD 450 nm
LA OD, IGF2 2 ng/ml [17]: 1.42 OD 450 nm
LA OD, IGF2 4 ng/ml [17]: 2.46 OD 450 nm

The remaining lines, values ahead:

binding result [18]: no binding (tested: 502 nM)
LA OD, IGF1 2 ng/ml [16]: 0.7 OD 450 nm
LA OD, IGF1 4 ng/ml [16]: 1.79 OD 450 nm
LA OD, IGF2 2 ng/ml [17]: 1.4 OD 450 nm
LA OD, IGF2 4 ng/ml [17]: 2.44 OD 450 nm
B3: mAb 7.234.2 (antibody, V domains shown)
VH: B1 VH
VL: B1 VL
notes: also called 7.234.1; 7_234_1

% MAX Activation, mean (n = 2), IGF-I pTYR of hIGF-IR in NIH3T3 cells [1]: 22.7%
EC50 (nM), mean (n = 2), IGF-I pTYR of hIGF-IR in NIH3T3 cells [1]: 28.3 nM
% MAX Activation, mean (n = 2), IGF-II pTYR of hIGF-IR in NIH3T3 cells [2]: 33.7%
EC50 (nM), mean (n = 2), IGF-II pTYR of hIGF-IR in NIH3T3 cells [2]: 11.3 nM
% Inhibition, mean (n = 3), IGF-I Proliferation Assay, NIH3T3/hIGF-IR cells [3]: 57.4%
EC50 (nM), mean (n = 3), IGF-I Proliferation Assay, NIH3T3/hIGF-IR cells [3]: 42.8 nM
% Inhibition, mean (n = 2), IGF-II Proliferation Assay, NIH3T3/hIGF-IR cells [4]: 54.6%
EC50 (nM), mean (n = 2), IGF-II Proliferation Assay, NIH3T3/hIGF-IR cells [4]: 36 nM
EC50 (nM), n = 1, IGF-I pTYR, BxPC3 cells [5]: 4.5 nM
EC50 (nM), n = 2, IGF-I pTYR, BxPC3 cells [5]: 3.6 nM
Max % Inhibition (333.3 nM), n = 1, IGF-I pTYR, BxPC3 cells [5]: 92.9%
Max % Inhibition (333.3 nM), n = 2, IGF-I pTYR, BxPC3 cells [5]: 89.4%
EC50 (nM), n = 2, IGF-II pTYR, BxPC3 cells [6]: 4.2 nM
Max % Inhibition (133.3 nM), n = 2, IGF-II pTYR, BxPC3 cells [6]: 74%
Max % Inhibition (333.3 nM), n = 1, IGF-II pTYR, BxPC3 cells [6]: 92.4%
EC50 (nM), n = 1, IGF-II Proliferation, BxPC3 cells [7]: 0.0013 nM
Max % Inhibition (133.3 nM), n = 2, IGF-II Proliferation, BxPC3 cells [7]: 148%
Max % Inhibition (333.3 nM), n = 1, IGF-II Proliferation, BxPC3 cells [7]: 86.3%
Kd [12]: 0.5 nM
koff [12]: 0.0022 s⁻¹
kon [12]: 4.4e+06 M⁻¹ s⁻¹
Kd [13]: 0.197 nM
koff [13]: 0.00067 s⁻¹
kon [13]: 3.4e+06 M⁻¹ s⁻¹
B4: mAb 7.158.2 (antibody, V domains shown)
VH: B1 VH with N30R, N34Y, A48E, R66K
VL: B1 VL with R18S, R27Q, W32Y, R39K, T50A, S65N, S93N
notes: Kappa light chain (L5/JK3); also called 7.158.1; 7_158_1
